The target of this assay is bovine thyroglobulin (natively iodinated) (bovine) (UniProt P01267). The assay can be described thus: cryo-EM structure; single-particle cryoEM; Tg at 7 mg/ml in 10 mM HEPES pH 7.4, 100 mM NaCl with 0.2% (w/v) CHAPS; vitrified at 4°C; C2 symmetry expansion, focused refinements.

Broadly, the stoichiometry N is the number of molecules, sites or subunits per partner or assembly.

Substance “bovine thyroglobulin (natively iodinated) (from UniProt P01267 20-2769) (natural protein)” displayed a stoichiometry N of 2.

The values are drawn from publication PMC8561740.
